Experimental data published in patent US20240132578A1.

Experiments:
Test in all cases: cell-based or functional assay
[1] = molecular target: HIV-1 93UG077 Env (HIV-1)
[2] = molecular target: HIV-1 JR-CSF Env F317A (HIV-1 (isolate JR-CSF, clade B)) (UniProt P20871)
[3] = molecular target: HIV-1 JR-CSF Env N295A (HIV-1 (isolate JR-CSF, clade B)) (UniProt P20871)
[4] = molecular target: HIV-1 JR-CSF Env N262A (HIV-1 (isolate JR-CSF)) (UniProt P20871)
[5] = molecular target: HIV-1 JR-CSF Env D325A (HIV-1 isolate JR-CSF) (UniProt P20871)
[6] = molecular target: HIV-1 JR-CSF Env N386A (HIV-1 isolate JR-CSF) (UniProt P20871)
[7] = molecular target: HIV-1 JRFL Env (HIV-1)
[8] = molecular target: HIV-1 envelope glycoprotein (Env) of isolate JR-FL, on pseudovirus (HIV-1)
[9] = molecular target: HIV-1 JR-CSF Env P299A (HIV-1 (isolate JR-CSF, clade B)) (UniProt P20871)
[10] = molecular target: HIV-1 envelope glycoprotein (Env) of isolate MGRM-Chronic-B-010, on pseudovirus (HIV-1)
[11] = molecular target: HIV-1 JR-CSF Env V292A (HIV-1 (isolate JR-CSF, clade B)) (UniProt P20871)
[12] = molecular target: HIV-1 JRFL envelope glycoprotein (Env) on pseudovirus (HIV-1)
[13] = molecular target: HIV-1 93UG077 envelope glycoprotein (Env) on pseudovirus (HIV-1)
[14] = molecular target: HIV-1 92UG005 envelope glycoprotein (Env) on pseudovirus (HIV-1)
[15] = molecular target: HIV-1 JR-CSF Env T341A (HIV-1 isolate JR-CSF) (UniProt P20871)
[16] = molecular target: HIV-1 MGRM-AG-005 envelope glycoprotein (Env) on pseudovirus (HIV-1)
[17] = molecular target: HIV-1 94UG103 envelope glycoprotein (Env) on pseudovirus (HIV-1)
[18] = molecular target: HIV-1 MGRM-A-010 envelope glycoprotein (Env) on pseudovirus (HIV-1)
[19] = molecular target: HIV-1 92TH021 envelope glycoprotein (Env) on pseudovirus (HIV-1)
[20] = molecular target: HIV-1 JR-CSF Env N276A (HIV-1 (isolate JR-CSF)) (UniProt P20871)
[21] = molecular target: HIV-1 MGRM-C-028 envelope glycoprotein (Env) on pseudovirus (HIV-1)
[22] = molecular target: HIV-1 MGRM-C-026 envelope glycoprotein (Env) on pseudovirus (HIV-1)
[23] = molecular target: HIV-1 JR-CSF Env T297A (HIV-1 (isolate JR-CSF, clade B)) (UniProt P20871)
[24] = molecular target: HIV-1 CMU02 envelope glycoprotein (Env) on pseudovirus (HIV-1)
[25] = molecular target: HIV-1 JRCSF envelope glycoprotein (Env) on pseudovirus (HIV-1) (UniProt P20871)
[26] = molecular target: HIV-1 NL43 envelope protein (Env) on pseudotyped virus (HIV-1 strain NL43)
[27] = molecular target: HIV-1 envelope glycoprotein (Env) of isolate MG RM-A-005 (HIV-1)
[28] = molecular target: HIV-1 Env of isolate MGRM-Chronic-B-012 (subtype B), on pseudovirus (HIV-1)
[29] = molecular target: HIV-1 Env of isolate MG RM-D-026 (subtype D) (HIV-1)
[30] = molecular target: HIV-1 Env of isolate APV-6 (Clade B) (HIV-1)
[31] = molecular target: HIV-1 Env of isolate MG RM-D-008 (subtype D) (HIV-1)
[32] = molecular target: HIV-1 IAVI_C22 envelope protein (Env) on pseudotyped virus (HIV-1 strain IAVI C22)
[33] = molecular target: HIV-1 Env of isolate MG RM-C-023 (HIV-1)
[34] = molecular target: HIV-1 93IN905 envelope protein (Env) on pseudotyped virus (HIV-1 strain 93IN905)
[35] = molecular target: HIV-1 Env of pseudovirus MGRM-F1-013 (clade F) (HIV-1)
[36] = molecular target: HIV-1 Env of isolate MGRM-Chronic-B-008 (subtype B), on pseudovirus (HIV-1)
[37] = molecular target: HIV-1 Env of isolate MG RM-D-011 (subtype D) (HIV-1)
[38] = molecular target: HIV-1 Env of isolate MG RM-D-012 (subtype D) (HIV-1)
[39] = molecular target: HIV-1 ADA envelope glycoprotein (Env), on pseudovirus (HIV-1 isolate ADA)

5147_N06 (PGT-130) (antibody)
IC50, pseudovirus neutralization [1]: > 10 µg/mL | Fold IC50 increase relative to wild-type [2]: 17 fold | Fold IC50 increase relative to wild-type [3]: 0.7 fold | Fold IC50 increase relative to wild-type [4]: 0.7 fold | Fold IC50 increase relative to wild-type [5]: > 1000 fold | Fold IC50 increase relative to wild-type [6]: 0.1 fold | IC50, pseudovirus neutralization [7]: 0.0346 µg/mL

5123_A06 (PGT-125) (antibody)
IC50, pseudovirus neutralization [1]: 0.0262 µg/mL | Fold IC50 increase relative to wild-type [3]: 0.8 fold | IC50, pseudovirus neutralization [8]: 0.009 µg/mL | Fold IC50 increase relative to wild-type [9]: 0.2 fold | IC50, pseudovirus neutralization [10]: 0.006 µg/mL | Fold IC50 increase relative to wild-type [5]: 0.4 fold | Fold IC50 increase relative to wild-type [6]: 0.8 fold | Fold IC50 increase relative to wild-type [11]: 3.3 fold | IC50, pseudovirus neutralization [7]: 0.0156 µg/mL

5343_B08 (PGT-135) (antibody)
Neutralization IC80 [12]: > 10 µg/mL | Neutralization IC90 [12]: > 10 µg/mL | Neutralization IC95 [12]: > 10 µg/mL | neutralization IC50 [12]: > 10 µg/mL | Neutralization IC80 [13]: > 10 µg/mL | Neutralization IC90 [13]: > 10 µg/mL | Neutralization IC95 [13]: > 10 µg/mL | neutralization IC50 [13]: > 10 µg/mL | Neutralization IC80 [14]: > 10 µg/mL | Neutralization IC90 [14]: > 10 µg/mL | Neutralization IC95 [14]: > 10 µg/mL | neutralization IC50 [14]: > 10 µg/mL | Fold IC50 increase relative to wild-type [15]: 0.6 fold | Neutralization IC80 [16]: > 10 µg/mL | Neutralization IC90 [16]: > 10 µg/mL | Neutralization IC95 [16]: > 10 µg/mL | neutralization IC50 [16]: > 10 µg/mL | Fold IC50 increase relative to wild-type [3]: > 18 fold | Neutralization IC80 [17]: > 10 µg/mL | Neutralization IC90 [17]: > 10 µg/mL | Neutralization IC95 [17]: > 10 µg/mL | neutralization IC50 [17]: > 10 µg/mL | Neutralization IC80 [18]: > 10 µg/mL | Neutralization IC90 [18]: > 10 µg/mL | Neutralization IC95 [18]: > 10 µg/mL | neutralization IC50 [18]: > 10 µg/mL | Fold IC50 increase relative to wild-type [9]: 0.36 fold | Fold IC50 increase relative to wild-type [4]: 2.1 fold | Neutralization IC80 [19]: > 10 µg/mL | Neutralization IC90 [19]: > 10 µg/mL | Neutralization IC95 [19]: > 10 µg/mL | neutralization IC50 [19]: > 10 µg/mL | Fold IC50 increase relative to wild-type [20]: 2.5 fold | Neutralization IC80 [21]: > 10 µg/mL | Neutralization IC90 [21]: > 10 µg/mL | Neutralization IC95 [21]: > 10 µg/mL | neutralization IC50 [21]: 2.16 µg/mL | Neutralization IC80 [22]: 0.0562 µg/mL | Neutralization IC90 [22]: 0.139 µg/mL | Neutralization IC95 [22]: 0.331 µg/mL | neutralization IC50 [22]: 0.0123 µg/mL | Fold IC50 increase relative to wild-type [23]: > 30 fold | Neutralization IC80 [24]: > 10 µg/mL | Neutralization IC90 [24]: > 10 µg/mL | Neutralization IC95 [24]: > 10 µg/mL | neutralization IC50 [24]: > 10 µg/mL | Fold IC50 increase relative to wild-type [11]: 2 fold | Neutralization IC80 [25]: 0.503 µg/mL | Neutralization IC90 [25]: 1.47 µg/mL | Neutralization IC95 [25]: 8.3 µg/mL | neutralization IC50 [25]: 0.113 µg/mL

1496_C09 (PG9) (TCN-109) (antibody)
IC50, Neutralizing Antibody Assay, Virus/Ab Incubation 1 hour [26]: 0.294 µg/mL | IC50, Neutralizing Antibody Assay, Virus/Ab Incubation 18 hour [26]: 38 µg/mL | IC50 [27]: 0.75 µg/mL | IC50, single-round pseudovirus neutralization [28]: 0.2 µg/mL | IC50 (µg/mL), pseudovirus neutralization [29]: 23.7 µg/mL | IC90 (neutralization of pseudovirus) [30]: 1.96 µg/mL | IC50 (µg/mL), pseudovirus neutralization [31]: 11.5 µg/mL | IC50, Neutralizing Antibody Assay, Virus/Ab Incubation 1 hour [32]: 24.9 µg/mL | IC50, Neutralizing Antibody Assay, Virus/Ab Incubation 18 hour [32]: 2.11 µg/mL | IC50 (µg/mL), pseudovirus neutralization [33]: 0.614 µg/mL | IC50, Neutralizing Antibody Assay, Virus/Ab Incubation 1 hour [34]: 0.144 µg/mL | IC50, Neutralizing Antibody Assay, Virus/Ab Incubation 18 hour [34]: 0.0619 µg/mL | IC50 [35]: 0.56 µg/mL | IC50, single-round pseudovirus neutralization [36]: 8.78 µg/mL | IC50 (µg/mL), pseudovirus neutralization [37]: 0.071 µg/mL | IC50 (µg/mL), pseudovirus neutralization [38]: 16.2 µg/mL | IC50 (ug/ml), pseudovirus neutralization, TZM-bl assay [39]: 0.2 µg/mL

PGV04 (antibody)
IC50 [27]: 0.134 µg/mL | IC50, single-round pseudovirus neutralization [28]: > 50 µg/mL | IC50 (µg/mL), pseudovirus neutralization [29]: 1.76 µg/mL | IC50 (µg/mL), pseudovirus neutralization [31]: 3.56 µg/mL | IC50 (µg/mL), pseudovirus neutralization [33]: 0.128 µg/mL | IC50, single-round pseudovirus neutralization [36]: 0.166 µg/mL | IC50 (µg/mL), pseudovirus neutralization [37]: 0.025 µg/mL | IC50 (µg/mL), pseudovirus neutralization [38]: 0.125 µg/mL

5136_H01 (PGT-131) (antibody)
Fold IC50 increase relative to wild-type [2]: 96 fold | Fold IC50 increase relative to wild-type [15]: 1.3 fold | Fold IC50 increase relative to wild-type [3]: 2.1 fold | Fold IC50 increase relative to wild-type [9]: 2 fold | Fold IC50 increase relative to wild-type [20]: 0.8 fold | Fold IC50 increase relative to wild-type [5]: > 170 fold | Fold IC50 increase relative to wild-type [11]: 1.4 fold

4858_P08 (PGT-123) (antibody)
IC50, pseudovirus neutralization [1]: 0.0303 µg/mL | Fold IC50 increase relative to wild-type [2]: 3.1 fold | Fold IC50 increase relative to wild-type [15]: 0.3 fold | IC50, pseudovirus neutralization [8]: 0.014 µg/mL | IC50, pseudovirus neutralization [10]: 0.009 µg/mL | Fold IC50 increase relative to wild-type [5]: 64 fold | Fold IC50 increase relative to wild-type [23]: 0.3 fold | IC50, pseudovirus neutralization [7]: 0.0283 µg/mL
